Test results: paper PMC4213023, “Structural Basis of Substrate Selectivity of E. coli Prolidase” (PLoS ONE, 2014)

Tests used:
[1] = target: Escherichia coli prolidase PepQ, wild type (Escherichia coli) (UniProt P21165)
[2] = target: Escherichia coli prolidase PepQ R370E (Escherichia coli) (UniProt P21165)
[3] = test system: C[C@H](N)C(=O)N1CCC[C@H]1C(N)=O; assay: purified protein; type: biochemical, Escherichia coli; settings: 50 mM Tris pH 8, 20 mM Mg(OAc)2, 25°C, 1 µM AlaDH and 2 mM NAD+ (coupling)
[4] = test system: C[C@H](N)C(=O)N1CCC[C@H]1C(=O)O; assay: purified protein; type: biochemical, Escherichia coli; settings: 50 mM Tris pH 8, 20 mM Mg(OAc)2, 25°C, 1 µM AlaDH and 2 mM NAD+ (coupling)
[5] = target: the molecule itself; assay: crystal structure; PepQ 12 mg/ml in 50 mM Tris pH 7.4, 5 mM MgCl2, 5 mM DTT; hanging drop at 4°C, 20% PEG MME 5000, 0.1 M Bis-Tris pH 6.5; one dimer in the asymmetric unit
[6] = target: the molecule itself; assay: SEC; analytical gel filtration, Superose 6, PepQ 10 nM in 50 mM Tris pH 7.4, 50 mM KOAc, 10 mM Mg(OAc)2, 2 mM DTT, 0.4 mL/min, tryptophan fluorescence detection

Row | Molecule | Km (mM) of hydrolysis of the dipeptide, coupled to AlaDH/NAD+ oxidation of alanine, 25°C [1] [mM] | Km (mM) of hydrolysis of the dipeptide, coupled to AlaDH/NAD+ oxidation of alanine, 25°C [2] [mM] | Km [3] [mM] | kcat [3] [s⁻¹] | kcat/Km [3] [M⁻¹ s⁻¹] | also measured
1 | AlaPro-CONH2 substrate dipeptide | 6.6 | 4.7 | – | – | – | –
2 | AlaPro-COOH substrate dipeptide | 1.2 | 127 | – | – | – | –
3 | E. coli PepQ (Escherichia coli K-12) | – | – | 6.6 ± 0.5 | 80.7 ± 19.7 | 12000 | Km [4]: 1.2 ± 0.1 mM; kcat [4]: 139 ± 2.5 s⁻¹; kcat/Km [4]: 120000 M⁻¹ s⁻¹
4 | E. coli PepQ (Escherichia coli K-12; R370E) | – | – | 4.7 ± 0.2 | 1.1 ± 0.4 | 230 | –
5 | Escherichia coli prolidase PepQ, wild type (enzyme, UniProt P21165 1-443, looked up, E. coli PepQ (prolidase), gene PCR amplified from chromosomal E. coli DNA; Cloned NdeI/XhoI into pET21a; Two Mg(II) ions per active site in the crystal; also called E. coli PepQ; WT; source: E. coli BL21[DE3], pET21a, purified (fast-flow Q anion exchange, phenyl-sepharose, ammonium sulfate precipitation)) MESLASLYKNHIATLQERTRDALARFKLDALLIHSGELFNVFLDDHPYPFKVNPQFKAWVPVTQVPNCWLLVDGVNKPKLWFYLPVDYWHNVEPLPTSFWTEDVEVIALPKADGIGSLLPAARGNIGYIGPVPERALQLGIEASNINPKGVIDYLHYYRSFKTEYELACMREAQKMAVNGHRAAEEAFRSGMSEFDINIAYLTATGHRDTDVPYSNIVALNEHAAVLHYTKLDHQAPEEMRSFLLDAGAEYNGYAADLTRTWSAKSDNDYAQLVKDVNDEQLALIATMKAGVSYVDYHIQFHQRIAKLLRKHQIITDMSEEAMVENDLTGPFMPHGIGHPLGLQVHDVAGFMQDDSGTHLAAPAKYPYLRCTRILQPGMVLTIEPGIYFIESLLAPWREGQFSKHFNWQKIEALKPFGGIRIEDNVVIHENNVENMTRDLKLA | – | – | – | – | – | stoichiometry N [5]: 2
6 | Escherichia coli prolidase PepQ R370E (enzyme, UniProt P21165 1-443, looked up, E. coli PepQ (prolidase) with R370E, made by site-directed mutagenesis of the wild-type construct (domains of the parent printed as 1-159 and 160-443); Same construct as m1 apart from R370E; PDB 4QR8 is the wild-type parent; also called R370E PepQ; charge-reversed mutant of PepQ; source: E. coli BL21[DE3], pET21a, purified following the protocols used for the wild-type enzyme) MESLASLYKNHIATLQERTRDALARFKLDALLIHSGELFNVFLDDHPYPFKVNPQFKAWVPVTQVPNCWLLVDGVNKPKLWFYLPVDYWHNVEPLPTSFWTEDVEVIALPKADGIGSLLPAARGNIGYIGPVPERALQLGIEASNINPKGVIDYLHYYRSFKTEYELACMREAQKMAVNGHRAAEEAFRSGMSEFDINIAYLTATGHRDTDVPYSNIVALNEHAAVLHYTKLDHQAPEEMRSFLLDAGAEYNGYAADLTRTWSAKSDNDYAQLVKDVNDEQLALIATMKAGVSYVDYHIQFHQRIAKLLRKHQIITDMSEEAMVENDLTGPFMPHGIGHPLGLQVHDVAGFMQDDSGTHLAAPAKYPYLECTRILQPGMVLTIEPGIYFIESLLAPWREGQFSKHFNWQKIEALKPFGGIRIEDNVVIHENNVENMTRDLKLA | – | – | – | – | – | binding result [6]: binds
